The results in this text go back to patent US20190085097A1 (published 2019).

The target in assay [1] is human plasmin (human, UniProt P00747 97-810, limits assumed). As to the kind of experiment: cell-based or functional assay.
Assay [2] deals with T1, human plasminogen (human, UniProt P00747 20-810).
T1 construct: also called h Pg
Description: saturation binding ELISA, human plasminogen coated at 2 ug/ml, one-site hyperbola fit.
Description: Saturation binding assay. Saturation binding assays were performed by ELISA in 96-well plates coated with 2 ug/ml of plasmin or plasminogen at room temperature for 1 hour. Wells were washed with PBS-T: (10 mM phosphate buffer pH 7.4, 150 mM NaCl, 0.05% Tween 20) six times. Non-specific protein binding sites were blocked with 1% BSA for 1 hour at room temperature. After washing the plate as above, various concentrations of antibody (0.002 to 100 ug/ml) were added to the plate in duplicate and for 1 hour at room temperature. The plate was washed and horseradish peroxidase (HRP) conjugated goat anti-mouse secondary antibody (1:8000, Santa Cruz, Dallas, Tex.) was added to the plate. After 1 hour incubation at room temperature, the plate was washed and TMB was added. The absorbance was then read at 370 nm.

Assay [3] addresses T2, mouse plasminogen (mouse, UniProt P20918 20-812).
T2 construct: also called mouse (m) Pg
Description: ELISA, antigen coated at 10 ug/ml, antibody supernatant, compared with anti-digoxin control. As to the method: (§1) Then goat anti mouse antibody conjugated with HRP (1:5000, Sc-2005, Santa Cruz) was then added. The plate was washed after incubation for 1 h. TMB was added to the wells and absorbance at 370nm was recorded.

In assay [4] the target is human tPA (human, UniProt P00750 36-562). The assay is described as above. As to the method: as §1
human tPA, sequence (P00750 36-562 limits assumed): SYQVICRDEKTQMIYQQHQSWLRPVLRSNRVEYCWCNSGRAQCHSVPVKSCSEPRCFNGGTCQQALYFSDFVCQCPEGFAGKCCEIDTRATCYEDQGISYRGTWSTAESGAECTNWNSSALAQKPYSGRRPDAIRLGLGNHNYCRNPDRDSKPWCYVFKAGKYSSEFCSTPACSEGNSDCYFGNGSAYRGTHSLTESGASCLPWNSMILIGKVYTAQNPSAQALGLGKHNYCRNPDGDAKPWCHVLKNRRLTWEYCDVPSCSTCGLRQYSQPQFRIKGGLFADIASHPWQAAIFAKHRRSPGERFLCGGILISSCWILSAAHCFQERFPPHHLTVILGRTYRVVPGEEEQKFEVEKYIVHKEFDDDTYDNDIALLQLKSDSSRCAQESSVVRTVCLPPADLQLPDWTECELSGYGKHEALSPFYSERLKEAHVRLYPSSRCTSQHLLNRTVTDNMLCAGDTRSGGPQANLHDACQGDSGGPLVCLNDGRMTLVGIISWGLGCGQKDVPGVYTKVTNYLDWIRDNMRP
Assay [5] addresses T3, bovine serum albumin (bovine, UniProt P02769 25-607).
T3 construct: also called BSA
The assay is described as above. As to the method: as §1

T1 sequence (P00747 20-810 limits assumed): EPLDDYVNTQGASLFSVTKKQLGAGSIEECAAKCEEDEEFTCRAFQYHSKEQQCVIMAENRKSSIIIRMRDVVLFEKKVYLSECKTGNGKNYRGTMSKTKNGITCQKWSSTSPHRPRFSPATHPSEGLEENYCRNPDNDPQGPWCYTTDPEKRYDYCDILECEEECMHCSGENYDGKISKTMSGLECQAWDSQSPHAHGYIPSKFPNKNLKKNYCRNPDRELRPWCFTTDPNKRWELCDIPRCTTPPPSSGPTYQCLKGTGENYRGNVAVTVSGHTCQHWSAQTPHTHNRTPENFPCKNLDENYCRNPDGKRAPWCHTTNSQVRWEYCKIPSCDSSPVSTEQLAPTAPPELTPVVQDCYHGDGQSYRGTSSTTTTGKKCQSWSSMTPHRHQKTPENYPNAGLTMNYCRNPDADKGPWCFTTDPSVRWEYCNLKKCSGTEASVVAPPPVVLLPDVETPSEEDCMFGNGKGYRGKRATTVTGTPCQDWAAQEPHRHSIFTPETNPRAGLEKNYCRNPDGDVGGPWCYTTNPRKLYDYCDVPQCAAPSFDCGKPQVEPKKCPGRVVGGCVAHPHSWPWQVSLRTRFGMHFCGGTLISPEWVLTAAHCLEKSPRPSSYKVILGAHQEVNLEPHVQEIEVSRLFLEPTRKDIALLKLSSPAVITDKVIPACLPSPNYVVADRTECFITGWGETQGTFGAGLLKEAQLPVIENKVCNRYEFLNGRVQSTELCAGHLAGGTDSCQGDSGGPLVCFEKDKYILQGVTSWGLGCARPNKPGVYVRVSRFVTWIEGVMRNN
T2 sequence (P20918 20-812 limits assumed): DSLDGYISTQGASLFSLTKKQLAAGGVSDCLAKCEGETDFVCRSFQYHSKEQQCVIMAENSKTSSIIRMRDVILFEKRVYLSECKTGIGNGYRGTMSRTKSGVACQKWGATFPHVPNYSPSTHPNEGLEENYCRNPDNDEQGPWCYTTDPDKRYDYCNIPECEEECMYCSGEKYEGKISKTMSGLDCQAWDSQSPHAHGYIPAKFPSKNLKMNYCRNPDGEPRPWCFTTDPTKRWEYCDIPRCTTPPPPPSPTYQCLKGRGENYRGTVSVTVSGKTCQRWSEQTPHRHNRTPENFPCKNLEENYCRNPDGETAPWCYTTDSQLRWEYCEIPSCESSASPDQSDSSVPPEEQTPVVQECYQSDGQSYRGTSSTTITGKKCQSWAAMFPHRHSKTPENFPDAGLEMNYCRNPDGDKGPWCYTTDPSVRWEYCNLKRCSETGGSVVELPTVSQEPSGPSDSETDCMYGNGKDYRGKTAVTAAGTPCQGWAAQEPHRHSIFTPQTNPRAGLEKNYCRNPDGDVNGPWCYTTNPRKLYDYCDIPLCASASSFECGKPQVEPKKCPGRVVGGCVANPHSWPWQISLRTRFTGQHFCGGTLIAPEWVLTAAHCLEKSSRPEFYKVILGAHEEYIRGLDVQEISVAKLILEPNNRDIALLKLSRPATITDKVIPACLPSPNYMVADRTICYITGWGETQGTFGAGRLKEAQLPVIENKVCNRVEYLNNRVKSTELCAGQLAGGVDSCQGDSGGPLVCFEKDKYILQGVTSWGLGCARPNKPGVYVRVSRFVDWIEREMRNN
T3 sequence (P02769 25-607 limits assumed): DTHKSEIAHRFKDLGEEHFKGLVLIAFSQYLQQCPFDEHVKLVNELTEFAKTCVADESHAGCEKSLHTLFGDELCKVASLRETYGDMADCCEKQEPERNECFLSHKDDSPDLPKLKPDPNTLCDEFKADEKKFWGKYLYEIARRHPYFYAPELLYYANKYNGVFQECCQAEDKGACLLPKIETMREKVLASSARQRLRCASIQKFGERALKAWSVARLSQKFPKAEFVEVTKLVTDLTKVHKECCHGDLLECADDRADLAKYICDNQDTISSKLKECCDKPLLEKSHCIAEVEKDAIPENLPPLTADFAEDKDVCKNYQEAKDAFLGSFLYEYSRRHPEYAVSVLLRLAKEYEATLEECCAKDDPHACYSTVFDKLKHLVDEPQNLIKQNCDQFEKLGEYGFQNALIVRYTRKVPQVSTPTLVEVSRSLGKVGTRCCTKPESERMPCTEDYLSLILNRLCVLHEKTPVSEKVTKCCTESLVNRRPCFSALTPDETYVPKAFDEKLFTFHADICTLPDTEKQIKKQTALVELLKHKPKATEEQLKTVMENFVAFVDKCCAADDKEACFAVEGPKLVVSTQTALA
human plasmin, sequence (P00747 97-810 limits assumed): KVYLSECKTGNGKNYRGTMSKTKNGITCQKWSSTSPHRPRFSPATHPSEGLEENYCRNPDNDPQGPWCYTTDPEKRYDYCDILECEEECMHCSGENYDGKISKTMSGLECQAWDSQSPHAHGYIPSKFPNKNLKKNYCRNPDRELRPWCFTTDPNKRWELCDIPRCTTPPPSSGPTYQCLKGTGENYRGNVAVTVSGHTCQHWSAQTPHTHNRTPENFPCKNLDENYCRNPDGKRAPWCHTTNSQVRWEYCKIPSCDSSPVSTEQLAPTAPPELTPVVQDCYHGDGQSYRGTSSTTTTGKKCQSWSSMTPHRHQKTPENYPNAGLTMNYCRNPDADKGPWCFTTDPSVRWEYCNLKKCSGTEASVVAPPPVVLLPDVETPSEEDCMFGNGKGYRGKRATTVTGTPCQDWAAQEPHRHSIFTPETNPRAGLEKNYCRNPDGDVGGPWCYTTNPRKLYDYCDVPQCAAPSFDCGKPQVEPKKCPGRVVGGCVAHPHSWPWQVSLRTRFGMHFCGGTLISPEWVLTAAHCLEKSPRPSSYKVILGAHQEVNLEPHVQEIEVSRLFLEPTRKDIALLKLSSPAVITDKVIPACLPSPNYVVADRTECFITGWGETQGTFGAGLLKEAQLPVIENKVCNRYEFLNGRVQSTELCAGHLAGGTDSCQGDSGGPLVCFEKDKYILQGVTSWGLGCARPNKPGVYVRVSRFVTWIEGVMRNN

B1: monoclonal antibody plasmin inhibitor (Pi) (antibody, mouse IgG1, kappa, V domains shown)
VH: EVKLLESGGGLVQPGGSLKLSCAASGFDFSRYWMSWVRQAPGKGLEWIGEINPDSSTINYTPSLKDKFIISRDNAKNSLYLQMSKVRSEDTALYYCASYCGYSYDALDCWGQGTSVTVSS
VL: DIQMTQSPSSLSASLGGKVSITCKASQDINKYISWYQHKPGKGPRLLIHYTSTLQPGIPSRFSGSGSGRDYSFSISNLEPEDIATYYCLQYDNLYTFGGGTKLEIKR
notes: Mouse hybridoma IgG purified from supernatant; also called Pi IgG; Pi MAb38
As to B1, the “plasmin-mediated fibrinolysis of human fibrin clots (125I-fibrin release, tPA)” value in assay [1] is ~5000 fold more potent than EACA. This molecule also had a Kd in assay [2] of 3.4 nM. The binding result in assay [3], in assay [4] and in assay [5] was “no binding” in each case.
